The experiment concerns the target T1, SDF1α (Homo sapiens, UniProt P61073, F172Y/F264Y/F293Y/F304Y/F36Y/F49Y/F93Y/I162T/I169T/I173T/I243T/I257T/I286T/I300T/I39T/I53T/I89T/L165Q/L246Q/L253Q/L290Q/L297T/L301Q/L50Q/L86Q/V242T/V82T/V96T/V99T).
T1 construct: HUMAN CXCR4 QTY; made in house; host or cells: cell-free production
Kind of experiment: Surface Plasmon Resonance analysis of CXCR4 QTY (Biacore, receptor captured on 1D4 Ab, SDF1α injected). Format: binding. To be noted: SPR, Biacore 2000, CM5 chip; SDF1α 0-1 μM; HBST with 0.2% BSA and 0.2% Fos-Choline-14. The method, then: Human CXCR4 and our CXCR4 QTY proteins obtained from cell-free production and purified with affinity beads were captured in different flow cells on a Biacore CM5 chip with immobilized 1D4 Antibody (Ab) in a Biacore 2000 instrument. Different concentrations of SDF1α, the native ligand for hCXCR4 receptor, were injected over the surface to allow interaction with the receptors.
Biacore CM5 chips were activated with 1-Ethyl-3-[3-dimethylaminopropyl]carbodiimide hydrochloride and N-hydroxysuccinimide according to the manufacturer's protocol prior to a 7 minute injection at 5 μl/min of 1D4 Ab to flow cells 2-4 at 70 μg/ml followed by deactivating of the surfaces in all the 4 flow cells with a short Ethanolamine pulse. The immobilization level of 1D4 Ab range from 8000-25000 Response units (RU).
CXCR4 and CXCR4 QTY mutant are captured by the 1D4 Ab on the CM5 chip by injecting a 0.1 mg/m1 sample of the protein to a single flow cell at 5 μl/min during 15 min with both sample and running buffer containing 0.2% Fos-Choline-14 detergent. The receptors were captured to a level of 800-3000 RU.
SDF1α were injected over all flow cells to allow interaction with both the receptors and flow cell one is used as a reference cell without any immobilized protein. […]

B1: CXCR4 QTY: Water-soluble human CXCR4 variant with 29 QTY mutations in the seven transmembrane helices (SEQ ID NO: 10) (protein)
chain: MEGISIYTSDNYTEEMGSGDYDSMKEPCFREENANYNKTFLPTIYSIIYQTGTVGNGLVILVMGYQKKLRSMTDKYRLHLSTADLQFVTTLPYWATDATANWYFGNFLCKAVHVIYTVNLYSSVLILAFISLDRYLAIVHATNSQRPRKLLAEKVVYVGVWTPAQLLTTPDYTFANVSEADDRYICDRFYPNDLWVVVFQFQHIMVGLILPGIVILSCYCIIISKLSHSKGHQKRKALKTTTTLIQAFFACWQPYYTGISIDSYILLEIIKQGCEFENTVHKWISTTEAQAFYHCCTNPTQYAYLGAKFKTSAQHALTSVSRGSSLKILSKGKRGGHSSVSTESESSSSFHS
For the molecule B1, the “ligand binding (SDF1α)” value was “shows ligand binding”.

Source of the values: patent US8637452B2, “Water soluble membrane proteins and methods for the preparation and use thereof” (Massachusetts Institute of Technology, priority 2011, dated 2014).
